T1: SCUBE1.Myc (human SCUBE1 tagged with Myc at the C-terminus, endogenous signal peptide) (human, UniProt Q8IWY4 23-988)
T1 construct: Expressed by transient transfection in HEK-293 / 293T cells; also called Myc-tagged human SCUBE1
T1 chain: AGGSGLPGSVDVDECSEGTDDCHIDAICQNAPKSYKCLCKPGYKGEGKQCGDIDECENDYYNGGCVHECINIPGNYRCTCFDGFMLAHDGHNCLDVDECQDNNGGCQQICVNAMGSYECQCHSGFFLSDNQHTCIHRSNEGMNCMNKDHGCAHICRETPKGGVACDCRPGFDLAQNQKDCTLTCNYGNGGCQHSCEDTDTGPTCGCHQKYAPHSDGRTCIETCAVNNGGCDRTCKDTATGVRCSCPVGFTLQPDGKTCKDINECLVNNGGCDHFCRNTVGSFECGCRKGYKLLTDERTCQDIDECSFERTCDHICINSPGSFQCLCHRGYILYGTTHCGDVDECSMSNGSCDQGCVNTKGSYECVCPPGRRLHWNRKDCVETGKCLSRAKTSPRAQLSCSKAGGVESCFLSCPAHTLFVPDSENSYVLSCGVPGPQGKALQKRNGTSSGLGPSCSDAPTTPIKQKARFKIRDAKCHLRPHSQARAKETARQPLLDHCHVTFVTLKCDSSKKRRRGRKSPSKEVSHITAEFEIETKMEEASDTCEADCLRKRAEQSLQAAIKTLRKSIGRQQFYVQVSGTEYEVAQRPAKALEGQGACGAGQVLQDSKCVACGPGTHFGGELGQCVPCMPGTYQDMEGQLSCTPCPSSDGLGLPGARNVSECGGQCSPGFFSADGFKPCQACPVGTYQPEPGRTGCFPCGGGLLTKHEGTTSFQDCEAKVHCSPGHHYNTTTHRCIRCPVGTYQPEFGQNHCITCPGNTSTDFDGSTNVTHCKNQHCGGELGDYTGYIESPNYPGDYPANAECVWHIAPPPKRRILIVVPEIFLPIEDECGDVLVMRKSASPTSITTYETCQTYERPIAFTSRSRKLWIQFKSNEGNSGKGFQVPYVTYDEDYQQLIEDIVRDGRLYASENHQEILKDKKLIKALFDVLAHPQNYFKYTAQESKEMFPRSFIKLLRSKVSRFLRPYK

B1: human SCUBE2 (SEQ ID NO:4) (other)
chain: RAAGPQEDVDECAQGLDDCHADALCQNTPTSYKCSCKPGYQGEGRQCEDIDECGNELNGGCVHDCLNIPGNYRCTCFDGFMLAHDGHNCLDVDECLENNGGCQHTCVNVMGSYECCCKEGFFLSDNQHTCIHRSEEGLSCMNKDHGCSHICKEAPRGSVACECRPGFELAKNQRDCILTCNHGNGGCQHSCDDTADGPECSCHPQYKMHTDGRSCLEREDTVLEVTESNTTSVVDGDKRVKRRLLMETCAVNNGGCDRTCKDTSTGVHCSCPVGFTLQLDGKTCKDIDECQTRNGGCDHFCKNIVGSFDCGCKKGFKLLTDEKSCQDVDECSLDRTCDHSCINHPGTFACACNRGYTLYGFTHCGDVTTIRTSVTFKLNEGKCSLKNAELFPEGLRPALPEKHSSVKESFRYVNLTCSSGKQVPGAPGRPSTPKEMFITVEFELETNQKEVTASCDLSCIVKRTEKRLRKAIRTLRKAVHREQFHLQLSGMNLDVAKKPPRTSERQAESCGVGQGHAENQCVSCRAGTYYDGARERCILCPNGTFQNEEGQMTCEPCPRPGNSGALKTPEAWNMSECGGLCQPGEYSADGFAPCQLCALGTFQPEAGRTSCFPCGGGLATKHQGATSFQDCETRVQCSPGHFYNTTTHRCIRCPVGTYQPEFGKNNCVSCPGNTTTDFDGSTNITQCKNRRCGGELGDFTGYIESPNYPGNYPANTECTWTINPPPKRRILIVVPEIFLPIEDDCGDYLVMRKTSSSNSVTTYETCQTYERPIAFTSRSKKLWIQFKSNEGNSARGFQVPYVTYDEDYQELIEDIVRDGRLYASENHQEILKDKKLIKALFDVLAHPQNYFKYTAQESREMFPRSFIRLLRSKVSRFLRPYK
notes: protein of 919 amino acids; also called recombinantly expressed SCUBE2

Key:
[1] = target: T1, SCUBE1.Myc (human SCUBE1 tagged with …); assay: co-immunoprecipitation of detergent lysates, anti-Myc IP, anti-Flag M2 blot (FIG. 8b)
Procedure: HEK-293 cells were transfected with expression plasmids encoding Flag-tagged full-length SCUBE1, SCUBE1-D1, SCUBE1-D2 and TLR2 (control) proteins, and, two days after transfection, cells were collected and homogenized. Samples of supernatant (S10) were centrifuged at 100,000×g for 30 min to give soluble fractions (S100) and pellets (P100 membrane fraction). Pellets were resuspended in original volumes of homogenization buffer with 0.1 M Na₂CO₃ (pH 12), sonicated briefly, and then incubated on ice for 30 min. Samples were centrifuged again at 100,000×g for 30 min. to give washed fractions S100′ and pellets P100′. Each fraction was subjected to SDS-PAGE and immunoblot analysis using anti-Flag M2 antibody. […] Upon disruption by sonication, however, they are released from the membrane and can be detected in the soluble membrane fraction. […] Flag-SCUBE1 and SCUBE1.Myc were singly or co-transfected in 293T cells. As a control, SCUBE1.Myc was expressed together with Flag-tagged IL-1β receptor (Flag.IL-1R1). Immunoprecipitation (IP) and Western blot (WB) were performed using antisera as indicated. The bands indicate the presence of protein complexes that can be precipitated by one antibody and detected by another. […] The spacer and CUB sequences are not required. […] In each case, a protein complex that could be precipitated with anti-Myc antibody was detected with anti-Flag M2 antibody.

[2] = target: B1; assay: overexpression; method not given
[3] = target: the molecule itself; assay: overexpression; method not given

| binding result [1] | binding result [2] | Binder | binding result [3] |
| --- | --- | --- | --- |
| binds |  | Flag.SCUBE1-D2 (Flag-tagged deletion construct 2 of human SCUBE1, amino acids 26-411 of SEQ ID NO:2; spacer, 10th EGF-like domain and CUB domain deleted) (other, not shown: small tags and cut ends) SGLPGSVDVDECSEGTDDCHIDAICQNAPKSYKCLCKPGYKGEGKQCGDIDECENDYYNGGCVHECINIPGNYRCTCFDGFMLAHDGHNCLDVDECQDNNGGCQQICVNAMGSYECQCHSGFFLSDNQHTCIHRSNEGMNCMNKDHGCAHICRETPKGGVACDCRPGFDLAQNQKDCTLTCNYGNGGCQHSCEDTDTGPTCGCHQKYAPHSDGRTCIETCAVNNGGCDRTCKDTATGVRCSCPVGFTLQPDGKTCKDINECLVNNGGCDHFCRNTVGSFECGCRKGYKLLTDERTCQDIDECSFERTCDHICINSPGSFQCLCHRGYILYGTTHCGDVDECSMSNGSCDQGCVNTKGSYECVCPPGRRLHWNRKDCVETGKCLSRA |  |
|  | binds | human SCUBE1 (SEQ ID NO:2) (other, glycosylated (N-linked, tunicamycin-sensitive), protein of 988 amino acids; also called Signal peptide-CUB-EGF-like domain-containing protein 1; recombinantly expressed SCUBE1) AGGSGLPGSVDVDECSEGTDDCHIDAICQNAPKSYKCLCKPGYKGEGKQCGDIDECENDYYNGGCVHECINIPGNYRCTCFDGFMLAHDGHNCLDVDECQDNNGGCQQICVNAMGSYECQCHSGFFLSDNQHTCIHRSNEGMNCMNKDHGCAHICRETPKGGVACDCRPGFDLAQNQKDCTLTCNYGNGGCQHSCEDTDTGPTCGCHQKYAPHSDGRTCIETCAVNNGGCDRTCKDTATGVRCSCPVGFTLQPDGKTCKDINECLVNNGGCDHFCRNTVGSFECGCRKGYKLLTDERTCQDIDECSFERTCDHICINSPGSFQCLCHRGYILYGTTHCGDVDECSMSNGSCDQGCVNTKGSYECVCPPGRRLHWNRKDCVETGKCLSRAKTSPRAQLSCSKAGGVESCFLSCPAHTLFVPDSENSYVLSCGVPGPQGKALQKRNGTSSGLGPSCSDAPTTPIKQKARFKIRDAKCHLRPHSQARAKETARQPLLDHCHVTFVTLKCDSSKKRRRGRKSPSKEVSHITAEFEIETKMEEASDTCEADCLRKRAEQSLQAAIKTLRKSIGRQQFYVQVSGTEYEVAQRPAKALEGQGACGAGQVLQDSKCVACGPGTHFGGELGQCVPCMPGTYQDMEGQLSCTPCPSSDGLGLPGARNVSECGGQCSPGFFSADGFKPCQACPVGTYQPEPGRTGCFPCGGGLLTKHEGTTSFQDCEAKVHCSPGHHYNTTTHRCIRCPVGTYQPEFGQNHCITCPGNTSTDFDGSTNVTHCKNQHCGGELGDYTGYIESPNYPGDYPANAECVWHIAPPPKRRILIVVPEIFLPIEDECGDVLVMRKSASPTSITTYETCQTYERPIAFTSRSRKLWIQFKSNEGNSGKGFQVPYVTYDEDYQQLIEDIVRDGRLYASENHQEILKDKKLIKALFDVLAHPQNYFKYTAQESKEMFPRSFIKLLRSKVSRFLRPYK | binds |
|  |  | B1 | binds |

Source: patent US20030219813A1 (Takeda / Millennium, published 2003)
